Assay results taken from paper PMC12363196, “High level of carbapenem resistance and transmission ability of blaIMP-26 in multidrug-resistant Enterobacter xiangfangensis isolates from China” (mSystems, 2025).

Columns and labels:
Assay in all cases: purified protein
Conditions in all cases: 50 mM HEPES pH 7.5, 250 mM NaCl, 100 µM ZnCl2, 37 °C, BSA 20 µg/mL in dilution buffer
[1] = system: CO/N=C(\C(=O)N[C@@H]1C(=O)N2C(C(=O)[O-])=C(C[N+]3(C)CCCC3)CS[C@H]12)c1csc(N)n1
[2] = system: C[C@@H](O)[C@H]1C(=O)N2C(C(=O)O)=C(SCCN=CN)C[C@H]12
[3] = system: CO/N=C(\C(=O)N[C@@H]1C(=O)N2C(C(=O)O)=C(COC(C)=O)CS[C@H]12)c1csc(N)n1
[4] = system: CC(C)(O/N=C(\C(=O)N[C@@H]1C(=O)N2C(C(=O)[O-])=C(C[n+]3ccccc3)CS[C@H]12)c1csc(N)n1)C(=O)O
[5] = system: C[C@@H](O)[C@H]1C(=O)N2C(C(=O)O)=C(S[C@@H]3CN[C@H](C(=O)N(C)C)C3)[C@H](C)[C@H]12

IMP-26 (Pseudomonas aeruginosa)
Km [1]: 497.1 µM | kcat [1]: 37.58 s⁻¹ | kcat/Km [1]: 76000 M⁻¹ s⁻¹ | Km [2]: 932.6 µM | kcat [2]: 159.51 s⁻¹ | kcat/Km [2]: 171000 M⁻¹ s⁻¹ | Km [3]: 192.1 µM | kcat [3]: 31.92 s⁻¹ | kcat/Km [3]: 166000 M⁻¹ s⁻¹ | Km [4]: 677.2 µM | kcat [4]: 38.86 s⁻¹ | kcat/Km [4]: 57000 M⁻¹ s⁻¹ | Km [5]: 218.8 µM | kcat [5]: 75.08 s⁻¹ | kcat/Km [5]: 343000 M⁻¹ s⁻¹
